Source: paper PMC4750872

Target: gankyrin (UniProt O75832)
Assay: ITC

Sequence of UniProt O75832 (O75832 whole entry): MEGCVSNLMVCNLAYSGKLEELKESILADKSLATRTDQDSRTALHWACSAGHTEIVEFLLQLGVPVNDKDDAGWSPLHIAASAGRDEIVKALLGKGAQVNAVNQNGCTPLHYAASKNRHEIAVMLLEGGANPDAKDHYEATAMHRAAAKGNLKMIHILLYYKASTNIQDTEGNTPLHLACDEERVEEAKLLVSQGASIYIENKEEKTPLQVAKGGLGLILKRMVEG

FtsH-S6 ATPase
dH: -29 kcal/mol
